The values that follow come from US20210070855A1 (NANJING LEGEND BIOTECH, published 2021).

Where two headings read alike, the source gives them in different places.

For experiment [1], the target named is T1, human CD47 on cells (human, UniProt Q08722 19-323).
T1 construct: also called CHO-K1/huCD47; human CD47 over-expressed in CHO-K1 cells
Kind of experiment: flow cytometry on red blood cells; unit taken from the axis.

Experiment [2] addresses T2, cynomolgus monkey CD47 on CHO-K1 cells (cynomolgus monkey, UniProt A0A5F8AK49 19-323 (rhesus entry)).
T2 construct: whole, on cells; also called CHO-K1/cyno CD47; CHO-K1/cynoCD47
Kind of experiment: flow cytometry on CHO-K1/cyno CD47 cells; unit taken from the axis.
Protocol: (§1) Briefly, binding to cell-expressed cyno CD47 was evaluated on cynomolgus monkey CD47 over-expressing CHO cells. Anti-CD47 antibody dilution series was prepared in FACS buffer. CHO-K1/cynomolgus monkey CD47 cell were transferred to a 96-well U-bottom plate and add CD47 antibody dilution. After 30 minutes incubation at 4° C., cells were washed twice with FACS buffer. […] The cells were washed twice with wash buffer, and then analyzed for binding by using FACSCalibur (BD Bioscience, San Jose, Calif.) and Flowjo software.

For experiment [3], the target named is T1, human CD47 on cells. In words: flow cytometry, blocking of human SIRPα binding to CHO-K1/huCD47 cells; B6H12 is the positive control.
The target of experiment [4] is T1, human CD47 on cells. In words: flow cytometry, blocking of human SIRPα binding to CHO-K1/huCD47 cells; the box on the sheet is labelled EC50; unit taken from the axis.
For experiment [5], the target named is T1, human CD47 on cells. In words: flow cytometry on CHO-K1/huCD47 cells (FL2-H channel); unit taken from the axis.
Experiment [6] concerns the target T2, cynomolgus monkey CD47 on CHO-K1 cells. Kind of experiment: flow cytometry on CHO-K1/cyno CD47 cells; unit taken from the axis. The source holds these as a separate data set.
Protocol: as §1
In experiment [7] the target is T1, human CD47 on cells. Kind of experiment: flow cytometry, blocking of human SIRPα binding to CHO-K1/huCD47 cells; the box on the sheet is labelled EC50; unit taken from the axis. This is another data set of the same source.
Protocol: (§2) After 30 minutes incubation at 4° C., cells were washed twice with FACS buffer.
The target of experiment [8] is T1, human CD47 on cells. Kind of experiment: flow cytometry on human red blood cells.
The target of experiment [9] is T1, human CD47 on cells. In words: flow cytometry on CHO-K1/huCD47 cells; x axis Log(nM), unit taken from the axis.
Protocol: (§3) Binding to cell-expressed human CD47 was evaluated on human CD47 over-expressing CHO cells (GenScript, Cat #M00581). Anti-CD47 antibody dilution series was prepared in FACS buffer. CHO-K1/human CD47 cells were transferred to a 96-well U-bottom plate and anti-CD47 antibody dilution was added. […] The cells were then washed twice with wash buffer. Cells were analyzed for binding by FACSCalibur (BD Bioscience, San Jose, Calif.) and Flowjo software.
Experiment [10] has as its target T1, human CD47 on cells. In words: flow cytometry, blocking of human SIRPα binding to CHO-K1/huCD47 cells.
Protocol: as §2
The target of another experiment is T3, human CD47-His protein (human, UniProt Q08722 19-139, limits assumed).
T3 construct: It includes the signal peptide and the membrane-spanning region, which a soluble protein would lack; not shown: His tag
In words: SPR (Biacore T200), antibody captured, human CD47-His as analyte, 1:1 model.

The target of another experiment is T4, CD47 protein.
T4 construct: also called CD47 (ELISA antigen); not shown: The carrier of the coated recombinant protein (an Fc tag as in CD47-Fc, or a His tag as in CD47-His)
In words: ELISA on CD47 protein; x axis is log10 of mAb (ng/ml), unit taken from the axis.

In experiment [11] the target is T1, human CD47 on cells. Kind of experiment: flow cytometry on human red blood cells; unit taken from the axis.
The target in experiment [12] is T2, cynomolgus monkey CD47 on CHO-K1 cells. In words: flow cytometry on CHO-K1/cyno CD47 cells; unit taken from the axis. This is another data set of the same source.
Protocol: as §1
Experiment [13] has the same target. In words: flow cytometry on CHO-K1/cynoCD47 cells; unit taken from the axis.
Protocol: as §1
The target of experiment [14] is T1, human CD47 on cells. Kind of experiment: flow cytometry on CHO-K1/huCD47 cells; unit taken from the axis.
Protocol: as §3
In experiment [15] the target is T1, human CD47 on cells. Kind of experiment: flow cytometry on red blood cells.
Experiment [16] has as its target T1, human CD47 on cells. Kind of experiment: flow cytometry, blocking of human SIRPα binding to CHO-K1/huCD47 cells. This is another data set of the same source.
Experiment [17] has as its target T2, cynomolgus monkey CD47 on CHO-K1 cells. Kind of experiment: flow cytometry on CHO-K1/cyno CD47 cells.
Protocol: as §1

B1: B6H12 (antibody, V domains shown)
VH: EVQLVESGGDLVKPGGSLKLSCAASGFTFSGYGMSWVRQTPDKRLEWVATITSGGTYTYYPDSVKGRFTISRDNAKNTLYLQIDSLKSEDTAIYFCARSLAGNAMDYWGQGTSVTVSS
VL: DIVMTQSPATLSVTPGDRVSLSCRASQTISDYLHWYQQKSHESPRLLIKFASQSISGIPSRFSGSGSGSDFTLSINSVEPEDVGVYYCQNGHGFPRTFGGGTKLEIK
In the case of B1, the EC50 is 7.74 nM in the experiment with human CD47 on cells [1], 13.3 nM in experiment [2], 2.31 nM with human CD47 on cells [5] and 13.3 nM in [6]. Also, the “IC50 (read off the curve)” value in the experiment with human CD47 on cells [3] was about 6 nM. The IC50 with human CD47 on cells [4] was determined as 5.4 nM.

B2: 107F11F10 (antibody, V domains shown)
VH: EVQLQQSGAEFVKPGASVKLSCTASGFNIEDTYMHWVKQRPEQGLEWIGMIDPANGKTKYGPRFQDKATVTADTSSNTANLQLSSLTSEDTAVYYCADGIGYYVGAMDYWGQGTSVTVSS
VL: DIQMNQSPSSLSASLGDTITITCHASQNINVWLSWYQQKPGNIPKLLIYKASNLHTGVPSRFSGSGSGTGFTLTISSLQPEDIATYYCQQGHSYPYTFGGGTKLEIK
notes: purified murine anti-CD47 hybridoma antibody; same VH and VL as 107F11B11 and 107F11C4
In the experiment with human CD47 on cells [7], B2 had a concentration for half-maximal inhibition (IC50) of 1.08 nM. Further, the EC50 in experiment [2] and in [6] was 0.931 nM each time. For the same molecule, the “EC50 (read off the curve)” value with human CD47 on cells [8] is about 0.01 µg/mL.

B3: 108C10A6 (antibody, V domains shown)
VH: QMQLQQSGPQLVRPGASVKISCKTSGYSFTHHWIHWMKQRPGQGLEWIGMIDPSDSETRLSQKFKDKATLTVDASSSTAYMQLNSPTSEDSALYFCARLGRYYFDYWGQGTTLTVSS
VL: NIVMTQSPRSMSMSVGERVTLSCKASENVGTYISWYQQKPDQSPKLLIYGASNRYTGVPDRFTGSGSGTDFTLTISTVQAEDLADYHCGESYGHLYTFGGGTKLEIK
notes: also called murine anti-CD47 antibody 108C10A6; 108C10A6/108C10F5
On to B3, for which the EC50 is 8.59 nM in the experiment with human CD47 on cells [9], 0.0621 µg/mL with CD47 protein, 0.0558 µg/mL with human CD47 on cells [11] and 2.03 nM in experiment [12]. For the same molecule, in the experiment with human CD47 on cells [10], the “IC50 (read off the curve)” value was about 1 nM. In addition, binding with human CD47-His protein was characterised by a dissociation constant (Kd) of 0.74 nM. Also, in the experiment with human CD47-His protein, the koff turned out to be 0.00032 s⁻¹. The molecule further displayed a kon with human CD47-His protein of 430000 M⁻¹ s⁻¹.

B4: 108C10A6_Chimeric hIgG1 (antibody, V domains shown)
VH: QMQLQQSGPQLVRPGASVKISCKTSGYSFTHHWIHWMKQRPGQGLEWIGMIDPSDSETRLSQKFKDKATLTVDASSSTAYMQLNSPTSEDSALYFCARLGRYYFDYWGQGTTLTVSS
VL: NIVMTQSPRSMSMSVGERVTLSCKASENVGTYISWYQQKPDQSPKLLIYGASNRYTGVPDRFTGSGSGTDFTLTISTVQAEDLADYHCGESYGHLYTFGGGTKLEIKR
notes: also called CD47-108C10A6_Chimeric huIgG1; chimeric 108C10A6
Consider B4, for which the EC50 came to 0.491 nM in experiment [13] and 0.551 nM with human CD47 on cells [14]. In the experiment with human CD47 on cells [4], this molecule yielded an IC50 of 1.42 nM. The “EC50 (read off the curve)” value with human CD47 on cells [15] was about 3 nM.

B5: 108VH4.M4_VL1.M1-hIgG4PE (antibody)
heavy: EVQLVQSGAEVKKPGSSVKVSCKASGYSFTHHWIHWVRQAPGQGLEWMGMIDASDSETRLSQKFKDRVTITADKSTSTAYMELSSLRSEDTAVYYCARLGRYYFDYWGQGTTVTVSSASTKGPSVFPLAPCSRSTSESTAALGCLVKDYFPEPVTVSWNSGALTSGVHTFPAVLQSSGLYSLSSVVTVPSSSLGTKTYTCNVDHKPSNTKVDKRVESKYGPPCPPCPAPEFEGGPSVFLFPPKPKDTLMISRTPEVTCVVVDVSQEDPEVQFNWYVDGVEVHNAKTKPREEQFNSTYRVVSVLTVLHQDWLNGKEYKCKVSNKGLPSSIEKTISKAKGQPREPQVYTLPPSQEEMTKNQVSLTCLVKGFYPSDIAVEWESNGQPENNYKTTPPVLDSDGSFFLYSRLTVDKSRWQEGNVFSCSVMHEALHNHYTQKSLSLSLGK
light: EIVLTQSPATLSLSPGERATLSCRASENVGTYISWYQQKPGQAPRLLIYGASNRYTGIPARFSGSGSGTDFTLTISSLEPEDFAVYYCGESYGHLYTFGGGTKVEIKRTVAAPSVFIFPPSDEQLKSGTASVVCLLNNFYPREAKVQWKVDNALQSGNSQESVTEQDSKDSTYSLSSTLTLSKADYEKHKVYACEVTHQGLSSPVTKSFNRGEC
notes: also called 108VH4.M4_VL1.M1-hlgG4PE; 108VH4.M4_VL1.M1-hIgG4PE-Ka
As for B5, the values for the 50% effective concentration (EC50) (with human CD47 on cells [1]; in [13]; in the experiment with human CD47 on cells [14]) were 3.18 nM, 0.477 nM and 0.586 nM, respectively. In the experiment with human CD47-His protein, this molecule displayed a dissociation constant (Kd) of 1.5 nM. This molecule also gave a koff with human CD47-His protein of 0.00046 s⁻¹. For the same molecule, the kon with human CD47-His protein was determined as 310000 M⁻¹ s⁻¹. Further, the “IC50 (read off the curve)” value in the experiment with human CD47 on cells [16] was about 1 nM.

B6: 98E2E12 (antibody, V domains shown)
VH: QVQLQQSGPQLVRPGASVKISCKASGYSFTNHWMHWMKQRPGQGLEWIGMIDPSDSETRLNQQFKDKATLTVDKSSSTAYMQLSSPTSEDSAVFYCARLGRYYFDYWGQGTTLTVSS
VL: NIVMTQSPKSMSVSVGERVTLSCRASDIVGTYVSWYQQKPEQSPKLLIYGASNRYTGVPDRFTGSRSATDFSLTISNVQAEDLADYLCGQSYDSPYTFGGGTKLEIK
notes: purified murine anti-CD47 hybridoma antibody; same VH and VL as 98E2E7; also called 04-98E2E12
Take B6: the IC50 in the experiment with human CD47 on cells [7] came out at 3.74 nM. Further, the EC50 in the experiment with human CD47 on cells [9] is 8.21 nM; with CD47 protein it was 0.00259 µg/mL; with human CD47 on cells [11], 0.00963 µg/mL. Also, the concentration for a half-maximal effect (EC50 (read off the curve)) in experiment [17] is about 2 nM.
